{"source": "patent WO2018084236A1", "about": "(dated 2018)", "target": "T1, peptide fragment of the human prorenin receptor protein, 200-213th polypeptide (SEQ ID NO: 37) (human)", "T1 construct": "For immunisation, KLH was linked to its amino terminus; also called peptide fragment of the prorenin receptor", "T1 peptide": "HKHLAKDHSPDLYS", "experiment": "BLI (BLItz, Pall ForteBio), antibody in hybridoma culture liquid against the prorenin receptor peptide fragment", "data": [{"binder": "anti-prorenin receptor monoclonal antibody 8_6 (antibody, IgM, V domains shown, Rat hybridoma antibody, isotype IgM; Hybridoma culture liquid was tested in the BLI screen) VH: VQLVESGGGLVQPGRSLKLSCAASGFTFSNYYMAWVRHAPKKGLEWVATISTSGSRTYYPDSVKGRFTISRDNAKSSLYLQMNSLKSEDTATYYCARHEFGAFDYWGQGVTV VL: DIVMTQSPSSLAVSAGETVTINCKSSQSLLYSGNQKNYLAWYQQKPGQSPKLLIYWASTRQSGVPDRFIGSGSGTDFTLTISSVQAEDLAIYYCQQYYDTPYTFGAGTK", "values": [{"measurement": "binding result", "result": "binds"}]}]}
